Assay results as given in US20160038588A1, “Myostatin Antagonism in Human Subjects” (AMGEN INC., priority 2013, published 2016).
pIC50: −log10 of the molar value.

Biological target: T1, myostatin (Homo sapiens, UniProt O14793)
T1 construct: To produce mature myostatin, the pooled promyostatin was enzymatically cleaved between the propeptide and mature myostatin C terminal; made in house
T1 sequence (O14793 267-375): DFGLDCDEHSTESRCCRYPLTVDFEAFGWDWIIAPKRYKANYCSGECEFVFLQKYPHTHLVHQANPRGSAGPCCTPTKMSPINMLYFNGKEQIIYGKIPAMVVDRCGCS
Experiment: C2C12 pMARE-luc cell based myostatin activity assay
Settings: not given
Excerpt: The antagonists including the binding agents described herein can be tested for their ability to bind myostatin and inhibit or block myostatin activity. Any number of assays or animal tests may be used to determine the ability of the agent to inhibit or block myostatin activity. Several assays used for characterizing the peptides and peptibodies of the present invention are described in the Examples below. One assay is the C2C12 pMARE-luc assay which makes use of a myostatin-responsive cell line (C2C12 myoblasts) transfected with a luciferase reporter vector containing myostatin/activin response elements (MARE). Exemplary peptibodies are assayed by pre-incubating a series of peptibody dilutions with myostatin, and then exposing the cells to the incubation mixture. The resulting luciferase activity is determined, and a titration curve is generated from the series of peptibody dilutions. The IC50 (the concentration of peptibody to achieve 50% inhibition of myostatin activity as measured by luciferase activity) was then determined. A second assay described below is a BIAcore® assay to determine the kinetic parameters ka (association rate constant), kd (dissociation rate constant), and KD (dissociation equilibrium constant) for the myostatin binding agents and other antagonists such as antibodies capable of binding myostatin and its receptor. Lower dissociation equilibrium constants (KD, expressed in nM) indicated a greater affinity of the peptibody for myostatin. […] These assays are described in Example 3.
C2C12 Cell Based Myostatin Activity Assay
A myostatin-responsive reporter cell line was generated by transfection of C2C12 myoblast cells (ATCC No: CRL-1772) with a pMARE-luc construct. The pMARE-luc construct was made by cloning twelve repeats of the CAGA sequence, representing the myostatin/activin response elements (Dennler et al. EMBO 17: 3091-3100 (1998)) into a pLuc-MCS reporter vector (Stratagene cat #219087) upstream of the TATA box. The myoblast C2C12 cells naturally express myostatin/activin receptors on its cell surface. When myostatin binds the cell receptors, the Smad pathway is activated, and phosphorylated Smad binds to the response element (Macias-Silva et al. Cell 87:1215 (1996)), resulting in the expression of the luciferase gene. Luciferase activity is then measured using a commercial luciferase reporter assay kit (cat # E4550, Promega, Madison, Wis.) according to manufacturer's protocol. A stable line of C2C12 cells that had been transfected with pMARE-luc (C2C12/pMARE clone #44) was used to measure myostatin activity according to the following procedure.
Equal numbers of the reporter cells (C2C12/pMARE clone #44) were plated into 96 well cultures. A first round screening using two dilutions of peptibodies was performed with the myostatin concentration fixed at 4 nM. Recombinant mature myostatin was preincubated for 2 hours at room temperature with peptibodies at 40 nM and 400 nM respectively. The reporter cell culture was treated with the myostatin with or without peptibodies for six hours. Myostatin activity was measured by determining the luciferase activity in the treated cultures. This assay was used to initially identify peptibody hits that inhibited the myostatin signaling activity in the reporter assay. Subsequently, a nine point titration curve was generated with the myostatin concentration fixed at 4 nM. The myostatin was preincubated with each of the following nine concentrations of peptibodies: […], 0.4 nM, 4 nM, 20 nM, 40 nM, 200 nM, 400 nM, 2 uM and 4 uM for two hours before adding the mixture to the reporter cell culture. The IC50 values were for a number of exemplary peptibodies are provided in Tables III and for affinity matured peptibodies, in Table VIII.

| inhibition of myostatin activity in cell-based assay | Substance |
| --- | --- |
| inhibit myostatin activity | L2: peptibody; peptide MEMLDSLFELLKDMVPISKA |

Same assay, conditions: affinity matured peptibodies; a range of values is given

| pIC50 | Substance |
| --- | --- |
| 8.18 to 8.39 | mTN8-19-14: affinity-matured peptibody; peptide EFTQWHCTRWPWMCPPQRSQ |
| 8.33 | mTN8-19-16: affinity-matured peptibody; peptide YQTQGLCTRWPWMCPPQSQR |
| 7.46 to 8.12 | mTN8-19-2: affinity-matured peptibody; peptide YPEQGLCTRWPWMCPPQTLA |
| 8.49 to 8.72 | 1× mTN8-19-22: 1× affinity-matured peptibody; peptide TFSQGHCTRWPWMCPPQGWG |
| 8.44 to 8.56 | 1× mTN8-19-21: 1× affinity-matured peptibody; peptide SEYQGLCTRWPWMCPPQGWK |
| 8.18 | mTN8-19-23: affinity-matured peptibody; peptide PGAHDHCTRWPWMCPPQSRY |
| 8.53 to 8.78 | mTN8-19-24: affinity-matured peptibody; peptide VAEEWHCRRWPWMCPPQDWR |
| 8.13 to 8.28 | mTN8-19-10: affinity-matured peptibody; peptide VVTQGHCTLWPWMCPPQRWR |
| 8.56 to 8.67 | 1× mTN8-19-33: 1× affinity-matured peptibody; peptide PESQGHCTRWPWMCPPQGWG |
| 7.54 | mTN8-19-11: affinity-matured peptibody; peptide IYPHDQCTRWPWMCPPQPYP |
| 7.78 | mTN8-19-4: affinity-matured peptibody; peptide MITQGQCTRWPWMCPPQPSG |
| 8.48 to 8.73 | 1× mTN8-19-32: 1× affinity-matured peptibody; peptide VADHGHCTRWPWMCPPQGWG |
| 8.36 | mTN8-19-28: affinity-matured peptibody; peptide SGPQGHCTRWPWMCAPQGWF |
| 6.01 | mTN8-19-12: affinity-matured peptibody; peptide SYWQGQCTRWPWMCPPQWRG |
| 8.20 | mTN8-19-29: affinity-matured peptibody; peptide TLVQGHCTRWPWMCPPQRWV |
| 8.30 | mTN8-19-34: affinity-matured peptibody; peptide IPAHGHCTRWPWMCPPQRWR |
| 8.31 to 8.32 | mTN8-19-27: affinity-matured peptibody; peptide ADTQGHCTRWPWMCPPQHWF |
| 7.76 | mTN8-19-6: affinity-matured peptibody; peptide GVNQGQCTRWRWMCPPNGWE |
| 8.36 to 9.00 | mTN8-19 con1: affinity-matured peptibody; peptide VATQGQCTRWPWMCPPQGWG |
| 7.64 to 7.73 | mTN8-19-9: affinity-matured peptibody; peptide TQTHAQCTRWPWMCPPQWEG |
| 8.11 to 8.46 | mTN8-19-5: affinity-matured peptibody; peptide AGAQEHCTRWPWMCAPNDWI |
| 7.70 | mTN8-19-13: affinity-matured peptibody; peptide MWQQGHCTRWPWMCPPQGWG |

Same assay, conditions: pMARE luc cell-based assay, myostatin 4 nM

| pIC50 | Substance |
| --- | --- |
| ~7.96 | Linear-20: peptibody; peptide YREMSMLEGLLDVLERLQHY |
| ~7.52 | TN12-34: peptibody; peptide AHWCEQGPWRYGNICMAY |

System: not listed separately
Experiment: In vivo pharmacokinetics in CD1 nu/nu mice
Parameters: species or system mouse
Settings: 10 mg/kg and 5 mg/kg, peptibodies without LE sequences
Description: In vivo pharmacokinetics experiments were performed using representative peptibodies without the LE sequences.

| Substance | half-life |
| --- | --- |
| 1× mTN8-19-22: 1× affinity-matured peptibody; peptide TFSQGHCTRWPWMCPPQGWG | about 50.2 hours |
| 1× mTN8-19-7: 1× affinity-matured peptibody; peptide LADHGQCIRWPWMCPPEGWE | about 65 hours |

System: CD1 nu/nu mice
Experiment: In vivo anabolic activity in CD1 nu/nu mouse model
Settings: 1× peptibody; 1, 3, 10 mg/kg s.c. twice or once weekly, 14 days, vs huFc control
Excerpt: In Vivo Anabolic Activity of Exemplary Peptibodies
The CD1 nu/nu mouse model (Charles River Laboratories, Massachusetts) was used to determine the in vivo efficacy of the peptibodies of the present invention which included the human Fc region (huFc). This model responded to the inhibitors of the present invention with a rapid anabolic response which was associated with increased dry muscle mass and an increase in myofibrillar proteins but was not associated with accumulation in body water content.
A group of 10 8 week old CD1 nu/nu mice were treated twice weekly or once weekly with dosages of 1 mg/kg, 3 mg/kg and 10 mg/kg (subcutaneous injection). The control group of 10 8 week old CD1 nu/nu mice received a twice weekly (subcutaneous) injection of huFc (vehicle) at 10 mg/kg. The animals were weighed every other day and lean body mass determined by NMR on day 0 and day 13. The animals are then scarified at day 14 and the size of the gastrocnemius muscle determined.
In another example, the 1× mTN8-19-32 peptibody was administered to CD1 nu/nu mice in a biweekly injection of 1 mg/kg, 3 mg/kg, 10 mg/kg, and 30 mg/kg compared with the huFc control (vehicle).
CD1 nu/nu male mice (10 animals per group) were treated with twice weekly injections of 1 mg/kg and 3 mg/kg of 1× mTN8-19-7 and 2× mTN8-19-7 for 35 days, while the control group (10 animals) received twice weekly injections of huFc (3 mg/kg).

| Substance | total body weight |
| --- | --- |
| 1× mTN8-19-21: 1× affinity-matured peptibody; peptide SEYQGLCTRWPWMCPPQGWK | increase in body weight compared with the control |

Same assay, conditions: biweekly injection 1, 3, 10, 30 mg/kg vs huFc control

| Substance | total body weight |
| --- | --- |
| 1× mTN8-19-32: 1× affinity-matured peptibody; peptide VADHGHCTRWPWMCPPQGWG | increase in total body weight |

Same assay, conditions: biweekly injection 1, 3, 10, 30 mg/kg; day 13 compared with day 0

| Substance | lean body mass (NMR) |
| --- | --- |
| 1× mTN8-19-32: 1× affinity-matured peptibody; peptide VADHGHCTRWPWMCPPQGWG | increase |

System: mdx mice
Experiment: Treatment of aged mdx mice (Duchenne muscular dystrophy model)
Type: in vivo, mouse
Settings: 10 mg/kg s.c. every other day, three months, vs huFc
Description: Muscular dystrophy is one of those disorders. The mouse model for Duchenne's muscular dystrophy is the Duchenne mdx mouse (Jackson Laboratories, Bar Harbor, Me.). Aged (10 month old) mdx mice were injected with either the peptibody 1× mTN8-19-33 (n=8/group) or with the vehicle huFc protein (N=6/group) for a three month period of time. The dosing schedule was every other day, 10 mg/kg, by subcutaneous injection.

| Substance | body weight | fat percentage of body weight | lean body mass to fat mass ratio (NMR) |
| --- | --- | --- | --- |
| 1× mTN8-19-33: 1× affinity-matured peptibody; peptide PESQGHCTRWPWMCPPQGWG | Significant increases in body weight | decreased | significantly increased |
